Article PMC12229552 (Nature Communications, 2025)

Target: GST-tagged human EZH2 (human, UniProt Q15910-2 1-751)
Test: pull-down

binding result: binds
B1: 6×His-tagged human DDX1 (natural protein, UniProt Q92499-1 1-740, looked up)
chain: MAAFSEMGVMPEIAQAVEEMDWLLPTDIQAESIPLILGGGDVLMAAETGSGKTGAFSIPVIQIVYETLKDQQEGKKGKTTIKTGASVLNKWQMNPYDRGSAFAIGSDGLCCQSREVKEWHGCRATKGLMKGKHYYEVSCHDQGLCRVGWSTMQASLDLGTDKFGFGFGGTGKKSHNKQFDNYGEEFTMHDTIGCYLDIDKGHVKFSKNGKDLGLAFEIPPHMKNQALFPACVLKNAELKFNFGEEEFKFPPKDGFVALSKAPDGYIVKSQHSGNAQVTQTKFLPNAPKALIVEPSRELAEQTLNNIKQFKKYIDNPKLRELLIIGGVAARDQLSVLENGVDIVVGTPGRLDDLVSTGKLNLSQVRFLVLDEADGLLSQGYSDFINRMHNQIPQVTSDGKRLQVIVCSATLHSFDVKKLSEKIMHFPTWVDLKGEDSVPDTVHHVVVPVNPKTDRLWERLGKSHIRTDDVHAKDNTRPGANSPEMWSEAIKILKGEYAVRAIKEHKMDQAIIFCRTKIDCDNLEQYFIQQGGGPDKKGHQFSCVCLHGDRKPHERKQNLERFKKGDVRFLICTDVAARGIDIHGVPYVINVTLPDEKQNYVHRIGRVGRAERMGLAISLVATEKEKVWYHVCSSRGKGCYNTRLKEDGGCTIWYNEMQLLSEIEEHLNCTISQVEPDIKVPVDEFDGKVTYGQKRAAGGGSYKGHVDILAPTVQELAALEKEAQTSFLHLGYLPNQLFRTF
